# Reference: article PMC7138851, “Quantitative assessment of the determinant structural differences between redox-active and inactive glutaredoxins” (Nature Communications, 2020)
# B1: ScGrx7 (Saccharomyces cerevisiae S288C) (protein)
# chain: SVNESITTHHPDSLVTFDNSGNAPGTHQSVHDTVNTQDKEAEEVDKNSGDAEFDAAAEYNKIMEQSPMIVFSKTGCPYSKKLKALLTNSYTFSPSYYVVELDRHEHTKELQDQIEKVTGRRTVPNVIIGGTSRGGYTEIAELHKNDELLDSFKKWSDGAFTVKANSQSESA
# notes: E. coli XL1-Blue, pQE30; N-terminal MRGS(H)6 tag
# Experiments:
# Test in all cases: purified protein, by the assay type
# Parameters in all cases: GSSCys oxidoreductase assay, steady-state kinetics, coupled NADPH consumption at 340 nm, pH 8.0, 25 °C
# Details in all cases: pH 8.0; 25.0 °C
# [1] = substrate: N[C@@H](CCC(=O)N[C@@H](CSSC[C@H](N)C(=O)O)C(=O)NCC(=O)O)C(=O)O
# Protocol: (§1) Steady-state kinetics of wild-type and mutant ScGrx7 and HsGrx5^C122S in the GSSCys and [compound left out] assays were determined spectrophotometrically by monitoring the consumption of NADPH at 340 nm and 25 °C using a thermostated Jasco V-650 UV/vis spectrophotometer[11],[19],[25]. Fresh stock solutions of NADPH, GSH, GR, and GSSCys or [compound left out] were prepared in assay buffer containing 0.1 M Tris/HCl, 1 mM EDTA, pH 8.0 before each experiment. Both assays were performed with 0.1 mM NADPH and 1 U/ml ScGR. The following final protein concentrations were used for Y110F/H/A (5–150 nM), D144A/K (10 nM), E147A/K (10 nM), R153A/E (25–50 nM), ScGrx7^WP (20 nM), ScGrx7^loop (up to 1.4 µM), ScGrx7^WP+loop (up 2.6 µM), HsGrx5^C122S (up to 15 µM), HsGrx5^RR (up to 12 µM), HsGrx5^loop (up to 1.6 µM), and HsGrx5^RR+loop (up to 4.0 µM). For the GSSCys assays, GSH was varied between 50 µM and 1.5 mM at fixed GSSCys concentrations (25, 50, 100, and 150 µM). NADPH, GSH, and GR were mixed in assay buffer before Grx was added and a baseline was recorded for 30 s. All GSSCys assays were started by the addition of GSSCys. The absorbance of a reference cuvette containing all components but no Grx was measured in parallel and subtracted from the obtained Grx activity. For the [compound left out] assays, GSH was varied between 100 µM and 2.0 mM at fixed concentrations of [compound left out] (0.18, 0.37, 0.55, and 0.74 mM). NADPH, GSH, and [compound left out] were preincubated in assay buffer for 2 min before GR was added and a baseline was recorded for 30 s. All [compound left out] assays were started by the addition of enzyme. Kinetic data were analyzed in Excel and SigmaPlot 13 by nonlinear and linear regression according to Michaelis–Menten, Lineweaver–Burk, Eadie–Hofstee, and Hanes theory[11],[19],[25]. 13 Supplementary Figure 7 Supplementary Figure 7 | GSSCys assay steady-state kinetics of ScGrx7 wild-type enzyme and D144X mutants. (a) Michaelis-Menten plots of the GSH-dependent reaction velocity at different initial concentrations of GSSCys. […]
# [2] = substrate: N[C@@H](CCC(=O)N[C@@H](CS)C(=O)NCC(=O)O)C(=O)O
# Protocol: as §1
# [3] = substrate: N[C@@H](CCC(=O)N[C@@H](CSSC[C@H](N)C(=O)O)C(=O)NCC(=O)O)C(=O)O; remark: listed apart in the source
# Protocol: as §1
# [4] = substrate: N[C@@H](CCC(=O)N[C@@H](CS)C(=O)NCC(=O)O)C(=O)O; remark: listed apart in the source
# Protocol: as §1
# [5] = substrate: N[C@@H](CCC(=O)N[C@@H](CSSC[C@H](N)C(=O)O)C(=O)NCC(=O)O)C(=O)O; remark: listed apart in the source
# Protocol: as §1
# [6] = substrate: N[C@@H](CCC(=O)N[C@@H](CS)C(=O)NCC(=O)O)C(=O)O; remark: listed apart in the source
# Protocol: as §1
protein,measurement,setting,value
B1,Km,[1],266 ± 129 µM
same,kcat,[1],163 ± 54.8 s⁻¹
same,kcat/Km,[1],612000 M⁻¹ s⁻¹
same,Km,[2],291 ± 17.6 µM
same,kcat,[2],75.2 ± 1.6 s⁻¹
same,kcat/Km,[2],258000 M⁻¹ s⁻¹
same,Km,[3],320 ± 91 µM
same,kcat,[3],239 ± 54 s⁻¹
same,kcat/Km,[3],757000 M⁻¹ s⁻¹
same,Km,[4],1479 µM
same,kcat,[4],334 s⁻¹
same,Km,[5],427 µM
same,Km,[6],286 ± 45 µM
same,kcat,[6],79.9 ± 27 s⁻¹
same,kcat/Km,[6],273000 M⁻¹ s⁻¹
